{"source": "patent US7193044B1", "about": "“Compounds and methods for regulating apoptosis, and methods of making and screening for compounds that regulate apoptosis” (Immunogen, Inc., priority 2000, dated 2007)", "key": {"[1]": {"test_system": "HeLa cells", "experiment": "Beta-gal ELISA apoptosis assay in transfected HeLa cells", "format": "cell-based, human", "conditions": "HeLa cells, 24 hours post-transfection", "procedure": "Because BAD Ser155 phosphorylation, like Ser136 phosphorylation, prevents BAD from binding to Bcl-XL (FIG. 1), it was possible that by analogy, Ser155 dephosphorylation promotes cell death. To test this idea, HeLa cells were co-transfected with BAD or various BAD serine mutants and a β-gal reporter plasmid. Twenty-four hours post-transfection, cell viability was analyzed by β-gal ELISA.\nTo test this idea, HeLa cells were again co-transfected with BAD or various BAD serine mutants and a β-gal reporter plasmid. Forskolin was then added to half of the cultures while the other half was left untreated. Beta-gal ELISAs were performed 24 hours post transfection. […] Thus, phosphorylation of Ser155 rescues cells from BAD-induced apoptosis, while substitution of Ser155 with a nonphosphorylatable residue results in increased cell death and the failure of cells to be protected from induced PKA activity.\nBeta-gal ELISA assays were performed using the β-gal ELISA system from Boehringer Mannheim, according to manufacture's instructions. Cells were transfected with BAD (or BAD mutant) and β-gal in a ratio of 5:1. The transfected cells were trypsinized and distributed into 96-well tissue culture plates. Twenty-four hours after transfection, cell extracts were obtained by lysing the cells in lysis buffer. Cell extracts (200 μl) were then added to anti-β-gal-coated microtiter plates (MTP). The MTPs were foil-covered and incubated for one hour at 37° C. Solutions were then decanted and the MTPs were washed, followed by the addition of 200 μl of anti-β-gal-DIG working solution, and incubation for an additional hour as described above. Solutions were again decanted, the MTPs washed and 200 μl of DIG-POD working solution were added. The MTPs were incubated for another hour at 37° C., the solution decanted, and the wells washed. 200 μl of substrate with enhancer were added to each well and incubated at room temperature until color development. The β-gal activity was measured by the absorbance of the sample at […]. Data were based on triplicate wells with standard deviations calculated."}, "[2]": {"target": "T1, PKA (catalytic subunit from bovine heart) (Bos taurus, UniProt P00517)", "T1 construct": "11 units PKA (catalytic subunit from bovine heart, Calbiochem); purchased Calbiochem; host or cells: bovine heart", "experiment": "In vitro kinase assay, phosphorylation of BAD and BAD mutants by PKA", "format": "biochemical", "conditions": "for in vitro phosphorylation by PKA: purified GST-tagged polypeptides, gamma-32P-ATP, autoradiography", "procedure": "The ability of full-length BAD and mutant BAD S155A to bind Bcl-XL was also determined (FIG. 3(c)). Full-length BAD (“WT”) and mutant BAD S155A (“S155A”) were produced by in vitro translation and labeled with ^35S-methionine therein. The labeled proteins were then incubated with PKA (“+”) in the presence of unlabeled ATP or a buffer control (“−”). Following the kinase reactions, aliquots of each sample of the four samples were incubated with either GST or GST-Bcl-XL. The protein complex were captured on glutathione-agarose beads. Proteins bound to the beads (“Bound”) (lower panel) and samples of the reactions collected prior to incubation with the beads (“Total”) (upper panel) were analyzed by SDS-PAGE followed by autoradiography.\nThe GST-tagged BAD and BAD mutants were then expressed individually in cells and the purified GST-tagged polypeptides incubated with purified PKA, in the presence of ^32P radiolabel. A western blot, probed with anti-BAD antibody, was performed on the incubated GST-tagged BAD and BAD mutants to determine whether PKA could phosphorylate the BAD and/or mutant BAD in vitro. The GST-tagged BAD and BAD mutants phosphorylated by PKA could be detected directly by autoradiography due to the incorporation of ^32P radiolabel when the polypeptides were phosphorylated (FIG. 4, upper panel), whereas the total amount of BAD and mutant BAD present in the in vitro reaction was detected by the anti-BAD antibody probe (FIG. 4, lower panel).\nIn vitro kinase assays were carried out in 30 μl volumes containing 10 mM HEPES buffer, pH 7.5, 100 mM NaCl, 12 mM MgCl2, 1 mM dithiothreitol, […] γ^32P-ATP ([…], NEN), 11 units PKA (catalytic subunit from bovine heart, Calbiochem), and 1 μg purified GST-BAD. Reactions were incubated for 30 min at 30° C. and terminated by the addition of SDS-PAGE sample buffer. Samples were run on a 4–20% SDS-PAGE gel (Novex), transferred to a nitrocellulose membrane and phosphorylated GST-BAD was visualized by autoradiography. To verify that equal amounts of GST-BAD substrates were used, the nitrocellulose was subjected to western blot analysis with 133 ng/ml anti-BAD antibody (C-20)."}}, "note": "“Also recorded” adds a separate entry of the source."}
{"molecule": "BAD S155A: mutant of shorter murine BAD, serine corresponding to Ser155 substituted with alanine; HA- or GST-tagged (protein, left off: small tags and cut ends, mutant of shorter murine BAD, serine corresponding to Ser155 substituted with alanine; HA- or GST-tagged) MFQIPEFEPSEQEDASATDRGLGPSLTEDQPGPYLAPGLLGSNIHQQGRAATNSHHGGAGAMETRSRHSSYPAGTEEDEGMEEELSPFRGRSRSAPPNLWAAQRYGRELRRMADEFEGSFKGLPRPKSAGTATQMRQSAGWTRIIQSWWDRNLGKGGSTPSQ", "values": [{"measurement": "effect of expressed BAD mutant on cellular survival / cell death", "setting": "[1]", "value": "greatest effect on cellular survival, with a significant increase in cell death compared to the control; also recorded: enhanced apoptotic activity compared with the wild-type mammalian BAD"}, {"measurement": "reduction of PKA catalyzed 32P-ATP incorporation", "setting": "[2]; compared to the wild-type mammalian BAD substrate", "value": "more than 90%"}, {"measurement": "in vitro phosphorylation by PKA", "setting": "[2]", "value": "low, but detectable level"}, {"measurement": "in vitro phosphorylation by PKA", "setting": "[2]; listed as GST-BAD S155A", "value": "dramatically reduced the phosphorylation"}]}
